Results from the supplement of paper PMC10899765.

Experiments:
Conditions in all cases: 20 nM; 72 h
MCF10A [1] = test: one-nucleolus phenotype percent effect (relative to siNT 0% and siNOL11 100%); higher = more cells with one nucleolus (ribosome biogenesis inhibition)
Protocol: (§1)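 After 72 h, cells were fixed and stained with Hoechst and anti-fibrillarin, and nucleoli per nucleus were counted with CellProfiler. Values are plate-adjusted percent effect for the one-nucleolus and 5+ nucleoli phenotypes, normalised to siNT (0%) and to the positive controls siNOL11 or siKIF11 (100%), as the mean of biological triplicates. Percent viability is the nuclei count relative to siNT.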

MCF10A [2] = test: 5+ nucleoli phenotype percent effect (relative to siNT 0% and siKIF11 100%); higher = more cells with five or more nucleoli
Protocol: as §1

MCF10A [3] = test: percent viability (nuclei count relative to siNT); higher = more viable cells
Protocol: as §1

| Sequence | one-nucleolus phenotype percent effect (MCF10A [1]) | 5+ nucleoli phenotype percent effect (MCF10A [2]) | percent viability (MCF10A [3]) |
| --- | --- | --- | --- |
| UAAAUCCCAUGGUGCCUUCUCCU [hsa-miR-605] | 53.8% | -52.1% | 31.2% |
| AAGAAGAGACUGAGUCAUCGAAU [hsa-miR-5197-3p] | -5.79% | 26.1% | 24.8% |
| CUGUGGGCUCAGCGCGUGGGG [hsa-miR-4322] | 28.2% | -30.6% | 31.3% |
| UAUUGCACUUGUCCCGGCCUGU [hsa-miR-92a-3p] | -3.22% | 4.47% | 88.8% |
| AUACUGUGAAUUUCACUGUCACA [hsa-miR-4693-5p] | 2.95% | -20.3% | 53.9% |
| GCCCAGGACUUUGUGCGGGGUG [hsa-miR-6840-3p] | -16.9% | 16.2% | 117% |
| GAAGAUGGUGCUGUGCUGAGGAA [hsa-miR-4647] | 22.7% | -5.89% | 60.7% |
| UCUGGUCCUGGACAGGAGGC [hsa-miR-7152-3p] | -12.8% | 18.5% | 41.9% |
| UCUGAGGCCUGCCUCUCCCCA [hsa-miR-4649-3p] | 23.9% | -6.15% | 54.4% |
| AGGGGGCGGGCUCCGGCG [hsa-miR-4488] | -5.44% | 8.35% | 70.5% |
| ACCUGGGUUGUCCCCUCUAG [hsa-miR-6742-3p] | -15.1% | 73.9% | 90.1% |
| GCUCAUCCCCAUCUCCUUUCAG [hsa-miR-6870-3p] | -31.1% | 36.6% | 115% |
| GAUGCGCCGCCCACUGCCCCGCGC [hsa-miR-4787-3p] | -16.2% | 33.1% | 76.2% |
| CAGGGCAGAGGGCACAGGAAUCUGA [hsa-miR-6735-5p] | 11.3% | -26.5% | 31.9% |
| UCCUGUCUUUCCUUGUUGGAGC [hsa-miR-5699] | -26.2% | 51.3% | 186% |
| AAAGACAUAGUUGCAAGAUGGG [hsa-miR-3617-5p] | -28.6% | 37.2% | 188% |
| AGAAGUGGCUAAUAAUAUUGA [hsa-miR-4795-5p] | -14.7% | -2.9% | 34.5% |
| GCAGUGGCUCUGAAAUGAACUC [hsa-miR-5693] | -3.8% | -12.8% | 33.8% |
| UUCAUUUGGUAUAAACCGCGAUU [hsa-miR-579] | 45.1% | -37.2% | 29% |
| CAGGGGCUGGGGUUUCAGGUUCU [hsa-miR-6813-5p] | -4.41% | -16.1% | 23.1% |
| CACACAGGAAAAGCGGGGCCCUG [hsa-miR-6768-5p] | -20.7% | 24.4% | 55.7% |
| UGGCCCAACCUAUUCAGUUAGU [hsa-miR-3136-3p] | -25.2% | 34.8% | 140% |
| UGUGCAAAUCUAUGCAAAACUGA [hsa-miR-19a-3p] | -14.6% | 34.4% | 141% |
| AGGCGCACCCGACCACAUGC [hsa-miR-6722-5p] | 26.5% | -18.7% | 22.4% |

| Sequence | one-nucleolus phenotype percent effect (MCF10A [1]) | 5+ nucleoli phenotype percent effect (MCF10A [2]) | percent viability (MCF10A [3]) |
| --- | --- | --- | --- |
| AACACACCUAUUCAAGGAUUCA [hsa-miR-362-3p] | -7.86% | 30.7% | 47.7% |
| CCGCCUGAGCUAGCUGUGG [hsa-miR-6078] | -22.1% | 38.1% | 89.3% |
| UGGGGGAGCCAUGAGAUAAGAGCA [hsa-miR-4723-5p] | 21.2% | 2.14% | 43.6% |
| UCUAGAGGAAGCACUUUCUGUUU [hsa-miR-520g-5p] | -24.2% | 34.9% | 67.5% |
| AAAGCGCUUCCCUUCAGAGUG [hsa-miR-518e-3p] | 9.91% | -27.4% | 48.9% |
| AUCACAUUGCCAGUGAUUACCC [hsa-miR-23c] | 2.08% | -6.12% | 93.5% |
| UAGGCCUUUAGAUCACUUAAA [hsa-miR-1245b-5p] | 19.2% | -5.02% | 21.5% |
| CGCUCUAGGCACCGCAGCA [hsa-miR-1301-5p] | -24.1% | 95.7% | 77.5% |
| AAAGGAUUCUGCUGUCGGUCCCACU [hsa-miR-541-5p] | 12.6% | -28.2% | 51.1% |
| CAGGCAGGUGUAGGGUGGAGC [hsa-miR-6893-5p] | -3.82% | -6.16% | 31.2% |
| CCUGAGACCCUAGUUCCAC [hsa-miR-4329] | -7.16% | 1.67% | 60.7% |
| UGCCCUCCUUUCUUCCCUC [hsa-miR-4290] | -1.5% | -8.55% | 21.6% |
| UGAGGCUAAUGCACUACUUCAC [hsa-miR-3975] | 38.9% | -22.7% | 15.5% |
| AGAGGCUGGCCGUGAUGAAUUC [hsa-miR-485-5p] | -17.3% | 22.1% | 216% |
| UUCCAGCCCUUCUAAUGGUAGG [hsa-miR-6512-3p] | 39.8% | -33.4% | 33.8% |
| CCAGACAGAAUUCUAUGCACUUUC [hsa-miR-1324] | -11% | 49.8% | 120% |
| UUAGUCCUGCCUGUAGGUUUA [hsa-miR-4540] | 8.27% | -37.9% | 39.3% |
| UGGAGACGCGGCCCUGUUGGAGU [hsa-miR-139-3p] | 20.9% | -24.5% | 68% |
| AGCCGCGGGGAUCGCCGAGGG [hsa-miR-3648] | -17.8% | 19.7% | 88.3% |
| UAGGACUAGAUGUUGGAAUUA [hsa-miR-4759] | -7.56% | 10.4% | 33.2% |
| CAAUGUUUCCACAGUGCAUCAC [hsa-miR-33a-3p] | -10.4% | 2.57% | 51.1% |
| GGGAUAUGAAGAAAAAU [hsa-miR-3201] | -15.6% | 40.5% | 59.6% |
| UUCUGGAAUUCUGUGUGAGGGA [hsa-miR-1299] | 19.2% | -3.13% | 58.7% |
| CCUGGGGACAGGGGAUUGGGGCAG [hsa-miR-8089] | -19.7% | 40.1% | 93.2% |
